According to patent publication US20180055768:

System: HA-tagged wt ARRDC1

Sequence of GFP-tagged WWP2 (chain, as listed by the source): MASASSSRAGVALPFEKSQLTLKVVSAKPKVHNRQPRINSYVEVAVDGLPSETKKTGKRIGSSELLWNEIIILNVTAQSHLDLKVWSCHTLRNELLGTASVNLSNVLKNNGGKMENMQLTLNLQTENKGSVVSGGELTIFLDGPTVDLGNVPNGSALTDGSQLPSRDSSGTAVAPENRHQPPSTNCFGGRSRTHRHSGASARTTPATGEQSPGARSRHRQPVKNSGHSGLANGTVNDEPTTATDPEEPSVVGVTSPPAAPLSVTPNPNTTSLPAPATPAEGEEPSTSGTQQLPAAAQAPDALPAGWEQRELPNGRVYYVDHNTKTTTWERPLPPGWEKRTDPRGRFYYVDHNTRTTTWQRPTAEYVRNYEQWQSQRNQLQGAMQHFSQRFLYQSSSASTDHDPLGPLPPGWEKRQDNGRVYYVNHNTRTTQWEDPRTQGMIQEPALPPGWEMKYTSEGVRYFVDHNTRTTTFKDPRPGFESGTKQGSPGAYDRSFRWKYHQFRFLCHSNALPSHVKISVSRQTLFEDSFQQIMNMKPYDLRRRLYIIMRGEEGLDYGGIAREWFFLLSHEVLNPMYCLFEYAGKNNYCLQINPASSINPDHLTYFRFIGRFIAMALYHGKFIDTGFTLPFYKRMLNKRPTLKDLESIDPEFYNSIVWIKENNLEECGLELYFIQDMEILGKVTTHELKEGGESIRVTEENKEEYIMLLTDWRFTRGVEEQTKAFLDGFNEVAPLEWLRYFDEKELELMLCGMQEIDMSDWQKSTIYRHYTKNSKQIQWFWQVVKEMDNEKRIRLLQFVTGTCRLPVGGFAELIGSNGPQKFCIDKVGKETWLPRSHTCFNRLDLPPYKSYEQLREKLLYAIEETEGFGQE

**Q.** For GFP-tagged WWP2, which “ubiquitination of ARRDC1 (immunoblot of WCEs and ARMMs)” value is on record?
**A.** ubiquitination of ARRDC1 was enhanced by WWP2
